Reference: publication PMC9455977, “Deciphering the Regulatory Circuits of RA3 Replication Module - Mechanisms of the Copy Number Control”

What was measured:
Conditions in all cases: protein: recombinant; tags: N-terminal His6; chain copies: 2; label: none (ethidium bromide stain); blunt
RepA (His6-RepA) [1] = target: T1, RepA (His6-RepA) (plasmid RA3 (IncU, isolated from …, UniProt Q209K0 1-98)); assay: EMSA; bound at 0.1 uM RepA; 25 mM Tris-HCl pH 8.0, 5 mM MgCl2, 40 mM NaCl, 0.5 mg/mL BSA, 30 min at 37 C, 20 uL; 30 ng PCR fragment (0.8% agarose) or 150 ng ds oligo (10% native PAGE), 0.5x TBE
T1 sequence: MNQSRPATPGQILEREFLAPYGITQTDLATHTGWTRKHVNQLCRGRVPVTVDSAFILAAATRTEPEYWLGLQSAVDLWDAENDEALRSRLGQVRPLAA

RepA (His6-RepA) [2] = target: T1, RepA (His6-RepA); assay: EMSA; no binding up to 4 uM RepA; 25 mM Tris-HCl pH 8.0, 5 mM MgCl2, 40 mM NaCl, 0.5 mg/mL BSA, 30 min at 37 C, 20 uL; 30 ng PCR fragment (0.8% agarose) or 150 ng ds oligo (10% native PAGE), 0.5x TBE
RepA (His6-RepA) [3] = target: T1, RepA (His6-RepA); assay: EMSA; no binding up to 4 uM RepA

B1: IR1 (dsDNA)
DNA 1: TTGAAGTTTACCAACTAGGTTACACTTCAA
DNA 2: TTGAAGTGTAACCTAGTTGGTAAACTTCAA
Question: Does B1 bind (RepA (His6-RepA) [1])?
Answer: binds

B2: IR2 (dsDNA)
DNA 1: AAACACATCATTCTGATGAGGGC
DNA 2: GCCCTCATCAGAATGATGTGTTT
Question: Does B2 bind (RepA (His6-RepA) [2])?
Answer: no binding

B3: IR2* (dsDNA)
DNA 1: AAACAGTCGACTCTGATGAGGGC
DNA 2: GCCCTCATCAGAGTCGACTGTTT
Question: Does B3 bind (RepA (His6-RepA) [3])?
Answer: no binding
